Experimental data: patent publication US20230265179A1 (TWIST BIOSCIENCE, published 2023)
Substitutions are numbered along the chain they refer to.

T1: CD40L (UniProt P29965 1-261, limits assumed)
T1 construct: whole, on cells; also called cytokine over-expressing Expi293 cells (CD40L)
T1 sequence (looked up): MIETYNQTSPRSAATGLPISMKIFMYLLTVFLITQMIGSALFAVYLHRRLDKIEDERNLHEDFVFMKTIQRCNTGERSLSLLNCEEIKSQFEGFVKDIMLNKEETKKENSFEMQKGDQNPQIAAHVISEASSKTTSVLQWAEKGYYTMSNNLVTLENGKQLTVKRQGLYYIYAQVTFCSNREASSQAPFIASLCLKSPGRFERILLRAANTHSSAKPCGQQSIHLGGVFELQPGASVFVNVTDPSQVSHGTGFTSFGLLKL

T2: IL1RL2 (UniProt Q9HB29 20-335, limits assumed)
T2 construct: Soluble analyte of the SPR runs
T2 sequence (looked up): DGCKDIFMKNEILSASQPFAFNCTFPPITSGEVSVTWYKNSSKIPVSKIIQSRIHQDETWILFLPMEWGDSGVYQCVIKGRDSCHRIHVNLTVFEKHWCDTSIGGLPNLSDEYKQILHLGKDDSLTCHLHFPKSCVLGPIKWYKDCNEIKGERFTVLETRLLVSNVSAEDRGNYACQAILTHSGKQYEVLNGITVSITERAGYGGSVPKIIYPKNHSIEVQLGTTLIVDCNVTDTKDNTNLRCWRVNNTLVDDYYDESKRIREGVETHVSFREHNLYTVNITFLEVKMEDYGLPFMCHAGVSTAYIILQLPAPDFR

T3: IL1RL2 over-expressed on Expi293 cells (UniProt Q9HB29 20-575, limits assumed)
T3 construct: whole, on cells; Target of the flow cytometry assay; MFI ratio is over-expressing cells over parent cells
T3 sequence (looked up): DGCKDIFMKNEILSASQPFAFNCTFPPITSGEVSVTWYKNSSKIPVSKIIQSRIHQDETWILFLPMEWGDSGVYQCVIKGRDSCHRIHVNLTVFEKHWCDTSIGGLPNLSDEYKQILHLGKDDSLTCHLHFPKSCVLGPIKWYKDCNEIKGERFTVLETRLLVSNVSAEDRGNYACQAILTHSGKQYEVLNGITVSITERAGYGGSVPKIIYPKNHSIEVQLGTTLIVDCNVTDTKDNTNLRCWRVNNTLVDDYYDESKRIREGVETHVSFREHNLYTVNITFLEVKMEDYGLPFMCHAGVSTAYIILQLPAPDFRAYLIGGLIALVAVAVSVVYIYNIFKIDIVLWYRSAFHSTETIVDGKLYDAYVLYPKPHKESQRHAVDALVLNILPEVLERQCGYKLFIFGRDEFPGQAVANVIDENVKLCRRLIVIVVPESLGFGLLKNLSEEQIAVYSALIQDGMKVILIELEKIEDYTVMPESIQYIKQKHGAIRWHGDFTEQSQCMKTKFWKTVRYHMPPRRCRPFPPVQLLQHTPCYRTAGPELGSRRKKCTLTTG

B1: CD40L-371 (antibody, V domains shown)
VH: EVQLLESGGGLVQPGGSLRLSCAASGFTSNIYAMSWVRQAPGKGLEWVSAISGSGFSTYYADSVKGRFTISRDNSKNTLYLQMNSLRAEDTAVYYCAKLAQNYGDPDAFDIWGQGTLVTVSS
VL: DIQMTQSPSSLSASVGDRVTITCRASQSISKYLNWYQQKPGKAPKLLIYAATSLESGVPSRFSGSGSGTDFTLTISSLQPEDFATYYCQQSYSTPLFTFGGGTKVEIK
B2: CD40L-416 (antibody, V domains shown)
VH: EVQLLESGGGLVQPGGSLRLSCAASGFTFSNYAMSWVRQAPGKGLEWVSAISGSGHSTYYADSVKGRFTISRDNSKNTLYLQMNSLRAEDTAVYYCARGGGYYNPLLFDYWGQGTLVTVSS
VL: B1 VL with S28Y, K31T, T52S, S53T, S56T, T94I, L96P, F97V
B3: CD40L-366 (antibody, V domains shown)
VH: EVQLLESGGGLVQPGGSLRLSCAASGFGFSSYAMSWVRQAPGKGLEWVSAITGSGSTTYYADSVKGRFTISRDNSKNTLYLQMNSLRAEDTAVYYCARAHDYDSMLMDYWGQGTLVTVSS
VL: DIQMTQSPSSLSASVGDRVTITCRASQSVSRFLNWYQQKPGKAPKLLIYAASTLQPGVPSRFSGSGSGTDFTLTISSLQPEDFATYYCQQSYETPLTFGGGTKVEIK
B4: CD40L-376 (antibody, V domains shown)
VH: B3 VH with G28T, T52S, G53A, S56G, A99S, S104R, M105Q, L106T, M107F
VL: B3 VL with V29I, R31T, N34S, A51T, Q55E, P56S, E93S
B5: CD40L-380 (antibody, V domains shown)
VH: B3 VH with T52S, S54G, S56G, T57S, T58I
VL: B3 VL
B6: CD40L-381 (antibody, V domains shown)
VH: EVQLLESGGGLVQPGGSLRLSCAASGFTFSSYDMNWVRQAPGKGLEWVAAISGSGGTTYYADSVKGRFTISRDNSKNTLYLQMNSLRAEDTAVYYCARGVYESMTGTYGYVDWFDPWGQGTLVTVSS
VL: B3 VL with V29I, S30P, R31T, F32Y, S52A, T53N, P56S, E93A, L96F
B7: CD40L-382 (antibody, V domains shown)
VH: EVQLLESGGGLVQPGGSLRLSCAASGFGFSSYAMSWVRQAPGKGLEWVSAISGGGGSIYYADSVKGRFTISRDNSKNTLYLQMNSLRAEDTAVYYCATDYGDYDRLNFDLWGQGTLVTVSS
VL: B3 VL with V29I, S30G, R31T, A50G, A51T, T53N, P56S, S91G, E93R
B8: CD40L-419 (antibody, V domains shown)
VH: B3 VH with G28T, S31N
VL: B3 VL with S26G, V29I, R31S, F32Y, A51S, P56R, Y92H, E93S, T94V
B9: CD40L-383 (antibody, V domains shown)
VH: B3 VH with G28T, S31N
VL: B3 VL with S28Y, V29I, S30N, R31N, F32Y, A51S, P56R, Y92F, E93S, L96I
B10: CD40L-398 (antibody, V domains shown)
VH: B3 VH with G28T, S31N
VL: DIQMTQSPFSLSASVGDRVTITCRASQNILTYLNWYQQKPGKAPKLLIYGASTLRSGVPSRFSGSGSGTDFTLTISSLQPEDFATYYCQQSYRLPLTFGGGTKVEIK
B11: CD40L-372 (antibody, V domains shown)
VH: B3 VH with G28T, S30T, S35T, A50S, G53S, S56G, T57S
VL: DIQMTQSPSSLSASVGDRVTITCRASQSIRSYLNWYQQKPGKAPKLLIYATSSLHSGVPSRFSGSGSGTDFTLTISSMQPEDFATYYCQQSFSLPPTFGGGTKVEIK
B12: CD40L-434 (antibody, V domains shown)
VH: EVQLLESGGGLVQPGGSLRLSCAASGFGFSSYAMSWVRQAPGKGLEWVSAISGGGGSIYYADSVKGRFTISRDNSKNTLYLQMNSLRAEDTAVYYCARHGGYYYYYMDVWGQGTLVTVSS
VL: B3 VL
B13: CD40L-414 (antibody, V domains shown)
VH: B7 VH with G28T, S31N, S52T, G54S, G56S, S57T, I58T
VL: B10 VL with F9S, N28S, L30G, Y32F, A51T, T53N, R55Q, S91G, L94T
B14: CD40L-403 (antibody, V domains shown)
VH: EVQLLESGGGLVQPGGSLRLSCAASGFTFRNYGMNWVRQAPGKGLEWVSSISGSGDYTYYADSVKGRFTISRDNSKNTLYLQMNSLRAEDTAVYYCARGLTYDILPRFDSWGQGTLVTVSS
VL: B3 VL with S28T, V29I, R31P, F32Y, P56A, G64S, E93S, T94L
B15: CD40L-404 (antibody, V domains shown)
VH: EVQLLESGGGLVQPGGSLRLSCAASGFTFRTYAMGWVRQAPGKGLEWVSAISGSGGIAYYADSVKGRFTISRDNSKNTLYLQMNSLRAEDTAVYYCARHYYYDSSDAFDIWGQGTLVTISS
VL: B10 VL with F9S, N28T, L30S, T31Y, G50D, S52T, T53S, R55Q, S91T, R93S
B16: CD40L-373 (antibody, V domains shown)
VH: B15 VH
VL: B3 VL with A25G, V29I, R31S, T53K, Q55H, P56S, Q90H, E93S
B17: IL1RL2-11 (VHH)
VHH: EVQLVESGGGLVQPGGSLRLSCAASGRTFSRYAMGWFRQAPGKEREFVAAINWSGARTYYADSVKGRFTISADNSKNTAYLQMNSLKPEDTAVYYCAVSQPLNYYTYYDARRYDWGQGTLVTVSS
notes: VHH-Fc based on IgG2 Fc
B18: IL1RL2-29 (VHH)
VHH: B17 VHH with R27G, R31A, A33T, N52S, A56G, R57S
notes: VHH-Fc based on IgG2 Fc
B19: IL1RL2-23 (VHH)
VHH: B17 VHH with R27P, R31T, N52S, R57N
notes: VHH-Fc based on IgG2 Fc
B20: IL1RL2-2 (VHH)
VHH: EVQLVESGGGLVQPGGSLRLSCAASGFTRSYYTMGWFRQAPGKERELVASITRGGGTTYADSVKGRFTISADNSKNTAYLQMNSLKPEDTAVYYCADVNGDWGQGTLVTVSS
notes: VHH-Fc based on IgG2 Fc
B21: IL1RL2-31 (VHH)
VHH: B20 VHH with F27R, R29F, S30D, Y31S, T33D, R53F, G56V, T58N
notes: VHH-Fc based on IgG2 Fc

Target: T1, CD40L
Test: flow cytometry, 100 nM IgG, CD40L over-expressing Expi293 cells over parent Expi293 cells
Method: (§1) All incubations and washes were in buffer containing PBS+1% BSA. MFI Ratio is defined by the mean fluorescence intensity (MFI) of the cytokine over-expressing Expi293 cell over the Expi293 parent cell. […] EC50 was calculated in GraphPad Prism.

Row | 100 nM FACS (MFI Ratio) [MFI ratio] | Binder
1 | 3.5 | B1
2 | 3.4 | B2
3 | 43 | B3
4 | 13.5 | B4
5 | 8.4 | B5
6 | 1.7 | B6
7 | 10.7 | B7
8 | 18.6 | B8
9 | 24.1 | B9
10 | 45.1 | B10
11 | 8.5 | B11
12 | 6.1 | B12
13 | 11.2 | B13
14 | 3.1 | B14
15 | 7.1 | B15
16 | 1.7 | B16

Target: T2, IL1RL2
Test: SPR (Carterra LSA), antibody immobilised, 1:1 model
Method: SPR experiments were performed on a Carterra LSA SPR biosensor equipped with a HC30M chip at 25° C. in HBS-TE. Antibodies were diluted to 10 μg/mL and amine-coupled to the sensor chip by EDC/NHS activation, followed by ethanolamine HCl quenching. Increasing concentrations of analyte were flowed over the sensor chip in HBS-TE with 0.5 mg/mL BSA with 5-minute association and 15-minute dissociation. Following each injection cycle the surface was regenerated with 2× 30-second injections of IgG elution buffer (Thermo). Data were analyzed in Carterra's Kinetics Tool software with 1:1 binding model.

Row | Kd [nM] | koff [s⁻¹] | kon [M⁻¹ s⁻¹] | Binder
17 | 8.48 | 0.000342 | 40400 | B17
18 | 10.5 | 0.000279 | 26500 | B18
19 | 8.13 | 0.000124 | 15300 | B19
20 | 10.2 | 0.000784 | 76900 | B20
21 | 3.82 | 0.000318 | 83300 | B21

Target: T3, IL1RL2 over-expressed on Expi293 cells
Test: flow cytometry, over-expressing Expi293 vs parent cells, 100 nM antibody;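 note: ratio is mean fluorescence intensity on over-expressing Expi293 cells divided by that measured on parental Expi293 cells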
Method: as §1

Row | 100 nM FACS (MFI Ratio) | Binder
22 | 22.4 | B17
23 | 5.46 | B18
24 | 13.9 | B19
25 | 9.22 | B20
26 | 7.16 | B21
